The Human Domainome abundance scans (Beltran et al. 2025)
± gives the uncertainty stated by the source.

B1: Intersectin-2, residues 1129 to 1183; numbered along this chain, Q9NZM3 (parent)
chain: VCQVIAMYDYAANNEDELSFSKGQLINVMNKDDPDWWQGEINGVTGLFPSNYVKM

Variants of: B1
Experiment: abundance fitness (aPCA) (normalised: wild type 0, dead -1); higher = more abundant; growth selection in yeast, the domain comes from the species named
Settings: Homo sapiens

Q: For VCQVIAMYDYAANNEDELSFSKGQLINVMNKHDPDWWQGEINGVTGLFPSNYVKM [D32H], which abundance fitness is on record?
A: The abundance fitness was -0.18 ± 0.06.

Q: For VCQVIAMYDYAANNEDELSFSKGQLINVMNKADPDWWQGEINGVTGLFPSNYVKM [D32A], which abundance fitness is on record?
A: The abundance fitness was -0.042 ± 0.038.

Q: For VCQVIAMYDYAANNEDELSFSKGQLINVMNKFDPDWWQGEINGVTGLFPSNYVKM [D32F], which abundance fitness is on record?
A: Its abundance fitness is -0.205 ± 0.05.

Q: Which abundance fitness does the source give for VCQVIAMYDYAANNEDELSFSKGQLINVMNKPDPDWWQGEINGVTGLFPSNYVKM [D32P] here?
A: Its abundance fitness is 0.084 ± 0.054.

Q: Which abundance fitness does the source give for VCQVIAMYDYAANNEDELSFSKGQLINVMNKQDPDWWQGEINGVTGLFPSNYVKM [D32Q] here?
A: The abundance fitness was 0.046 ± 0.061.

Q: With VCQVIAMYDYAANNEDELSFSKGQLINVMNKTDPDWWQGEINGVTGLFPSNYVKM [D32T] as the variant, how does the abundance fitness read?
A: Its abundance fitness is -0.075 ± 0.038.

Q: For VCQVIAMYDYAANNEDELSFSKGQLINVMNKRDPDWWQGEINGVTGLFPSNYVKM [D32R], which abundance fitness is on record?
A: Its abundance fitness is -0.049 ± 0.041.

Q: With VCQVIAMYDYAANNEDELSFSKGQLINVMNKCDPDWWQGEINGVTGLFPSNYVKM [D32C] as the variant, how does the abundance fitness read?
A: The abundance fitness was -0.089 ± 0.043.

Q: With VCQVIAMYDYAANNEDELSFSKGQLINVMNKSDPDWWQGEINGVTGLFPSNYVKM [D32S] as the variant, how does the abundance fitness read?
A: The abundance fitness was -0.063 ± 0.031.

Q: For VCQVIAMYDYAANNEDELSFSKGQLINVMNKYDPDWWQGEINGVTGLFPSNYVKM [D32Y], which abundance fitness is on record?
A: Its abundance fitness is -0.077 ± 0.052.

Q: With VCQVIAMYDYAANNEDELSFSKGQLINVMNKWDPDWWQGEINGVTGLFPSNYVKM [D32W] as the variant, how does the abundance fitness read?
A: Its abundance fitness is -0.086 ± 0.053.

Q: With VCQVIAMYDYAANNEDELSFSKGQLINVMNKKDPDWWQGEINGVTGLFPSNYVKM [D32K] as the variant, how does the abundance fitness read?
A: The abundance fitness was -0.007 ± 0.055.

Q: Which abundance fitness does the source give for VCQVIAMYDYAANNEDELSFSKGQLINVMNKNDPDWWQGEINGVTGLFPSNYVKM [D32N] here?
A: Its abundance fitness is 0.021 ± 0.047.

Q: Which abundance fitness does the source give for VCQVIAMYDYAANNEDELSFSKGQLINVMNKMDPDWWQGEINGVTGLFPSNYVKM [D32M] here?
A: The abundance fitness was -0.043 ± 0.054.

Q: Which abundance fitness does the source give for VCQVIAMYDYAANNEDELSFSKGQLINVMNKLDPDWWQGEINGVTGLFPSNYVKM [D32L] here?
A: The abundance fitness was -0.11 ± 0.035.

Q: With VCQVIAMYDYAANNEDELSFSKGQLINVLNKDDPDWWQGEINGVTGLFPSNYVKM [M29L] as the variant, how does the abundance fitness read?
A: The abundance fitness was -0.013 ± 0.04.

Q: With VCQVIAMYDYAANNEDELSFSKGQLINVTNKDDPDWWQGEINGVTGLFPSNYVKM [M29T] as the variant, how does the abundance fitness read?
A: Its abundance fitness is 0.014 ± 0.045.

Q: For VCQVIAMYDYAANNEDELSFSKGQLINVNNKDDPDWWQGEINGVTGLFPSNYVKM [M29N], which abundance fitness is on record?
A: Its abundance fitness is -0.187 ± 0.075.

Q: Which abundance fitness does the source give for VCQVIAMYDYAANNEDELSFSKGQLINVWNKDDPDWWQGEINGVTGLFPSNYVKM [M29W] here?
A: The abundance fitness was -0.053 ± 0.032.

Q: Which abundance fitness does the source give for VCQVIAMYDYAANNEDELSFSKGQLINVSNKDDPDWWQGEINGVTGLFPSNYVKM [M29S] here?
A: Its abundance fitness is -0.039 ± 0.028.

Q: With VCQVIAMYDYAANNEDELSFSKGQLINVQNKDDPDWWQGEINGVTGLFPSNYVKM [M29Q] as the variant, how does the abundance fitness read?
A: Its abundance fitness is -0.125 ± 0.063.

Q: Which abundance fitness does the source give for VCQVIAMYDYAANNEDELSFSKGQLINVPNKDDPDWWQGEINGVTGLFPSNYVKM [M29P] here?
A: The abundance fitness was -0.496 ± 0.068.

Q: Which abundance fitness does the source give for VCQVIAMYDYAANNEDELSFSKGQLINVYNKDDPDWWQGEINGVTGLFPSNYVKM [M29Y] here?
A: The abundance fitness was -0.18 ± 0.089.

Q: Which abundance fitness does the source give for VCQVIAMYDYAANNEDELSFSKGQLINVRNKDDPDWWQGEINGVTGLFPSNYVKM [M29R] here?
A: Its abundance fitness is -0.014 ± 0.032.

Q: Which abundance fitness does the source give for VCQVIAMYDYAANNEDELSFSKGQLINVVNKDDPDWWQGEINGVTGLFPSNYVKM [M29V] here?
A: The abundance fitness was -0.001 ± 0.033.

Q: For VCQVIAMYDYAANNEDELSFSKGQLINVMNKDDNDWWQGEINGVTGLFPSNYVKM [P34N], which abundance fitness is on record?
A: Its abundance fitness is 0.036 ± 0.055.

Q: For VCQVIAMYDYAANNEDELSFSKGQLINVMNKDDEDWWQGEINGVTGLFPSNYVKM [P34E], which abundance fitness is on record?
A: Its abundance fitness is 0.03 ± 0.058.

Q: Which abundance fitness does the source give for VCQVIAMYDYAANNEDELSFSKGQLINVMNKDDCDWWQGEINGVTGLFPSNYVKM [P34C] here?
A: Its abundance fitness is -0.195 ± 0.063.

Q: For VCQVIAMYDYAANNEDELSFSKGQLINVMNKDDVDWWQGEINGVTGLFPSNYVKM [P34V], which abundance fitness is on record?
A: The abundance fitness was -0.033 ± 0.038.

Q: Which abundance fitness does the source give for VCQVIAMYDYAANNEDELSFSKGQLINVMNKDDYDWWQGEINGVTGLFPSNYVKM [P34Y] here?
A: The abundance fitness was -0.147 ± 0.042.

Q: With VCQVIAMYDYAANNEDELSFSKGQLINVMNKDDKDWWQGEINGVTGLFPSNYVKM [P34K] as the variant, how does the abundance fitness read?
A: Its abundance fitness is 0.055 ± 0.046.

Q: With VCQVIAMYDYAANNEDELSFSKGQLINVMNKDDQDWWQGEINGVTGLFPSNYVKM [P34Q] as the variant, how does the abundance fitness read?
A: Its abundance fitness is 0.029 ± 0.063.

Q: Which abundance fitness does the source give for VCQVIAMYDYAANNEDELSFSKGQLINVMNKDDSDWWQGEINGVTGLFPSNYVKM [P34S] here?
A: The abundance fitness was -0.013 ± 0.042.

Q: Which abundance fitness does the source give for VCQVIAMYDYAANNEDELSFSKGQLINVMNKDDLDWWQGEINGVTGLFPSNYVKM [P34L] here?
A: The abundance fitness was -0.079 ± 0.03.

Q: For VCQVIAMYDYAANNEDELSFSKGQLINVMNKDDIDWWQGEINGVTGLFPSNYVKM [P34I], which abundance fitness is on record?
A: The abundance fitness was -0.071 ± 0.038.

Q: With VCQVIAMYDYAANNEDELSFSKGQLINVMNKDDADWWQGEINGVTGLFPSNYVKM [P34A] as the variant, how does the abundance fitness read?
A: Its abundance fitness is 0.005 ± 0.04.

Q: Which abundance fitness does the source give for VCQVIAMYDYAANNEDELSFSKGQLINVMNKDDRDWWQGEINGVTGLFPSNYVKM [P34R] here?
A: The abundance fitness was -0.018 ± 0.043.

Q: Which abundance fitness does the source give for VCQVIAMYDYAANNEDELSFSKGQLINVMNKDDMDWWQGEINGVTGLFPSNYVKM [P34M] here?
A: Its abundance fitness is -0.015 ± 0.056.

Q: With VCQVIAMYDYAANNEDELSFSKGQLINVMNKDDTDWWQGEINGVTGLFPSNYVKM [P34T] as the variant, how does the abundance fitness read?
A: The abundance fitness was -0.009 ± 0.034.

Q: For VCQVIAMYDYAANNEDELSFSKGQLINVMNKDDHDWWQGEINGVTGLFPSNYVKM [P34H], which abundance fitness is on record?
A: The abundance fitness was -0.194 ± 0.07.

Q: Which abundance fitness does the source give for VCQVIAMYDYAANNEDELSFSKGQLINVMNKDDDDWWQGEINGVTGLFPSNYVKM [P34D] here?
A: The abundance fitness was -0.01 ± 0.062.

Q: Which abundance fitness does the source give for VCQVIAMYDYAANNEDELSFSKGQLINVMNKDDWDWWQGEINGVTGLFPSNYVKM [P34W] here?
A: Its abundance fitness is -0.161 ± 0.061.

Q: Which abundance fitness does the source give for VCQVIAMYDYAANNEDELSFSKGQLINVMNKDDGDWWQGEINGVTGLFPSNYVKM [P34G] here?
A: Its abundance fitness is -0.028 ± 0.04.

Q: With VCQVIAMYDYAANNEDELSFSKGQLINVMNCDDPDWWQGEINGVTGLFPSNYVKM [K31C] as the variant, how does the abundance fitness read?
A: The abundance fitness was 0.138 ± 0.041.

Q: For VCQVIAMYDYAANNEDELSFSKGQLINVMNWDDPDWWQGEINGVTGLFPSNYVKM [K31W], which abundance fitness is on record?
A: Its abundance fitness is -0.138 ± 0.046.

Q: For VCQVIAMYDYAANNEDELSFSKGQLINVMNRDDPDWWQGEINGVTGLFPSNYVKM [K31R], which abundance fitness is on record?
A: The abundance fitness was -0.061 ± 0.041.

Q: Which abundance fitness does the source give for VCQVIAMYDYAANNEDELSFSKGQLINVMNHDDPDWWQGEINGVTGLFPSNYVKM [K31H] here?
A: Its abundance fitness is -0.148 ± 0.059.

Q: For VCQVIAMYDYAANNEDELSFSKGQLINVMNADDPDWWQGEINGVTGLFPSNYVKM [K31A], which abundance fitness is on record?
A: Its abundance fitness is 0.173 ± 0.033.
